In US20090220521A1 (published 2009) one finds Kd data, which are given here for five molecules.

What is called Kd is the equilibrium constant for the complex coming apart.

To fix the notation:
B1: Bax74 (antibody, V domains shown)
VH: EVQLLESGGGLVQPGGSLRLSCAASGFTFSKYYMIWVRQAPGKGLEWVSWIGPSGGFTFYADSVKGRFTISRDNSKNTLYLQMNSLRAEDTAVYYCARGTPDYGGNSLDHWGQGTLVTVSS
VL: DIQMTQSPSSLPASVGDRVTITCRASQSIGTYLSWYQHKPGNAPKLLIYATSRLQSGVPSRFSGGGSGTRFTLAISSLQPDDFATYFCQQTYSTPLTFGGGTKVDIK
B2: Bax69 (antibody, V domains shown)
VH: EVQLLESGGGLVQPGGSLRLSCAASGFTFSIYSMNWVRQAPGKGLEWVSSIGSSGGTTYYADSVKGRFTISRDNSKNTLYLQMNSLRAEDTAVYYCAGSQWLYGMDVWGQGTTVTVSS
VL: DIQMTQSPSSLSASVGDRVTITCRSSQRIMTYLNWYQQKPGKAPKLLIFVASHSQSGVPSRFRGSGSETDFTLTISGLQPEDSATYYCQQSFWTPLTFGGGTKVEIK
B3: BaxA10 (antibody, V domains shown)
VH: EVQLLESGGGLVQPGGSLRLSCAASGFTFSWYAMDWVRQAPGKGLEWVSGIYPSGGRTKYADSVKGRFTISRDNSKNTLYLQMNSLRAEDTAVYYCARVNVIAVAGTGYYYYGMDVWGQGTTVTVSS
VL: DIQMTQSPGTLSLSPGERATLSCRASQGVSSSSLAWYQQKPGQAPRLLIYGTSSRATGIPDRFSGSASGTDFTLTISRLQPEDFAVYYCQQYGRSLTFGGGTKVEIK
B4: anti-MIF antibody Bax94 (antibody, V domains shown)
VH: EVQLLESGGGLVQPGGSLRLSCAASGFTFSIYAMDWVRQAPGKGLEWVSGIVPSGGFTKYADSVKGRFTISRDNSKNTLYLQMNSLRAEDTAVYYCARVNVIAVAGTGYYYYGMDVWGQGTTVTVSS
VL: DIQMTQSPGTLSLSPGERATLSCRASQGVSSSSLAWYQQKPGQAPRLLIYGTSSRATGIPDRFSGSASGTDFTLTISRLQPEDFAVYYCQQYGRSLTFGGGTKVEIK
B5: Bax152 (antibody, V domains shown)
VH: EVQLLESGGGLVQPGGSLRLSCAASGFTFSIYAMDWVRQAPGKGLEWVSGIVPSGGFTKYADSVKGRFTISRDNSKNTLYLQMNSLRAEDTAVYYCARVNVIAVAGTGYYYYGMDVWGQGTTVTVSS
VL: DIQMTQSPVTLSLSPGERATLSCRASQSVRSSYLAWYQQKPGQTPRLLIYGASNRATGIPDRFSGSGSGTDFTLTISRLEPEDFAVYYCQQYGNSLTFGGGTKVEIK

recombinant human MIF (macrophage migration inhibitory factor), sequence (P14174 2-115): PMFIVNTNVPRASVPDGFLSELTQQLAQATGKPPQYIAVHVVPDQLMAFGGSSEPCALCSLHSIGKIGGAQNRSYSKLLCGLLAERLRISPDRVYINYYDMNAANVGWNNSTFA

The experiment addresses recombinant human MIF (macrophage migration inhibitory factor) (human, UniProt P14174 2-115). Put plainly: Biacore; Fab fragment.
Consider B1, for which the Kd was 93 nM.

For B2, the Kd amounted to 55 nM.

As to B3, the Kd was determined as 0.4 nM.

As to B4, the Kd stood at 4 nM.

B5: the Kd was 16 nM.
